PMC7430568

Legend:
[1] = biological target: SARS-CoV-2 Spike* (mutant, pre-fusion stabilised Spike protein ectodomain) (SARS-CoV-2, Wuhan-Hu-1); assay: SPR
[2] = biological target: SARS-CoV-2 Spike* (mutant, pre-fusion stabilised Spike protein ectodomain) (SARS-CoV-2, Wuhan-Hu-1)

Substance | kd2 (slow phase of dissociation) [1] | IC50 [2] | Kd [1]
Nb6-tri (trivalent Nb6 with two 20 amino acid linkers) (VHH) | < 1e-06 s⁻¹ | 1500 pM | 
mNb6-tri (trivalent mNb6) (VHH) |  | 400 pM | < 1 pM
